How the values were obtained:
[1] = target: EvpP (E. tarda virulent protein P), wild type, 6x His-tagged (Edwardsiella tarda PPD130/91); test: SEC; Superdex 75 HiLoad 16/60; EvpP eluted at ~72 ml, standards ovalbumin (44 kDa) at 63 ml and myoglobulin (17 kDa) at 83 ml
[2] = target: EvpP (E. tarda virulent protein P), wild type, 6x His-tagged (Edwardsiella tarda PPD130/91); test: dynamic light scattering; 50 µM protein, 20°C, DynaPro; 11 readings
[3] = target: EvpP (E. tarda virulent protein P), wild type, 6x His-tagged (Edwardsiella tarda PPD130/91); test: cross-linking; glutaraldehyde, room temperature, different time periods, SDS-PAGE
[4] = target: trypsin-digested EvpP (associated 10-kDa and 4-kDa fragments) (Edwardsiella tarda PPD130/91); test: SEC; EvpP after limited trypsin digestion (protein:trypsin 100:1), HiLoad 16/60 Superdex 75

EvpP (E. tarda virulent protein P), wild type, 6x His-tagged (natural protein)
stoichiometry N [1]: 2
stoichiometry N [2]: 2
stoichiometry N [3]: 2

trypsin-digested EvpP (associated 10-kDa and 4-kDa fragments) (complex)
stoichiometry N [4]: 2

From PMC4234509
